Assay [1] addresses T1, Human CD38 (human, UniProt P28907 1-300).
T1 sequence: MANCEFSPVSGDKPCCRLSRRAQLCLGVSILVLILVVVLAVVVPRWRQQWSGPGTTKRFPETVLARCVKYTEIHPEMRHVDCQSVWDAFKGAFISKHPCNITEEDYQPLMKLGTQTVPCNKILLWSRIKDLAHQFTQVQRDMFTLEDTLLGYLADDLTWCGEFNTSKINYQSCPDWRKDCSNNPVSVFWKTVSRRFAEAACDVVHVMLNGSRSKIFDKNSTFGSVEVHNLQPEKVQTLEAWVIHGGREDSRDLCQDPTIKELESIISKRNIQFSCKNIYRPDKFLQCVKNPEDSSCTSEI
Nature of the assay: flow cytometry on red blood cells of Donor 2; negative control.

The target of assay [2] is T1, Human CD38. Nature of the assay: flow cytometry on red blood cells of Donor 1; negative control. A general note: In flow cytometry, cells or beads pass a laser one at a time.
For assay [3], the target named is T1, Human CD38. The assay can be described thus: flow cytometry on Ramos cells expressing CD38; negative control, ambiguous regression curve.
For assay [4], the target named is T1, Human CD38. The assay can be described thus: flow cytometry on red blood cells of Donor 3; negative control.
Assay [5] has as its target T1, Human CD38. Nature of the assay: flow cytometry on Raji cells expressing CD38; text value differs from Table 1 (273). On the procedure: (§1) Cell lines/primary cell type used. […] Daudi, Raji, Ramos and cells were cultured in log-phase in RPMI-1640 Medium (ATCC 30-2001) supplemented with 10% FCS, 2 mM L-glutamine, 100 IU/ml penicillin, 100 μg/ml streptomycin and 1 mM sodium pyruvate (all from ThermoFisher) with viability of >85% as determined by automated cell counter (Countess II FL Automated Cell Counter; ThermoFisher; catalog #AMQAF1000) prior to experiments.
(§2) Cell staining and flow cytometry. All experiments were done in triplicates using a 96-well plate format. 50,000 cells were plated in each well of a 96-well round bottom tissue culture treated plate. […] Following a wash step with FACS cell staining buffer, cells were incubated with secondary antibody (rabbit anti-human Fcγ F(ab′)2 labeled with Alexa Fluor647; Jackson ImmunoResearch Catalog #309-606-008) at 5 μg/ml for 30 minutes on ice in the dark. Cells were washed once more with FACS cell staining buffer and analyzed by flow cytometry using a BD Biosciences FACSCalibur flow cytometer (San Jose, CA). FSC vs SSC gating was used to identify cells of interest. A total of 3,000 live single cells were recorded for each sample and corresponding fluorescent signal intensity histograms were analyzed. The mean fluorescence intensity (MFI) was calculated using FlowJo analysis software (Ashland, Oregon) for each antibody concentration.

For assay [6], the target named is T1, Human CD38. Nature of the assay: flow cytometry on Daudi cells expressing CD38. The protocol: as §1, §2
Assay [7] concerns the target T1, Human CD38. Nature of the assay: flow cytometry on Raji cells expressing CD38. On the procedure:
as §1, §2

In assay [8] the target is T1, Human CD38. The assay can be described thus: flow cytometry on Ramos cells expressing CD38. The protocol:
as §1, §2

Experimental findings from patent publication US20250189544A1 (CASI PHARMACEUTICALS, published 2025) are described below.

What is called EC50 is the midpoint of the concentration-response curve. Lower therefore signals higher potency in that assay.

For Human IgG1 isotype control antibody, the results for the Max MFI in assay [1], in assay [2] and in assay [4] were 2110 MFI, 2560 MFI and 1960 MFI, respectively. The EC50 in assay [3] worked out at 0.001 µg/mL.

B1: CID103 (aCD38-b-348) (antibody, V domains shown)
VH: QLQLQESGPGLVKPSETLSLTCTVSGGSISSSDYYWGWIRQPPGKGLEWIGSIYYSGSTYYNPSLKSRVTISVDTSKNQFSLKLSSVTAADTAVYYCARGQYSSGWYAYPFDMWGQGTMVTVSS
VL: EIVLTQSPGTLSLSPGERATLSCRASQSVRSSYLAWYQQKPGQAPRLLIYGASSRATGIPDRFSGSGSGTDFTLTISRLEPEDFAVYYCQQDGNVYTFGGGTKVEIK
For B1, the EC50 in assay [5] was determined as 0.373 µg/mL; in assay [6], 0.382 µg/mL; in assay [7], 0.273 µg/mL; in assay [8], 0.412 µg/mL.
